Consider three molecules from patent publication US20110274653A1, “DENDRITIC CELL IMMUNORECEPTORS (DCIR)-MEDIATED CROSSPRIMING OF HUMAN CD8+ T CELLS” (priority 2010, published 2011).

One test concerns blood HLA-A201^+ mDCs. The test is classed as cell-based, human. The conditions noted are these: mDCs targeted with anti-DCIR.doc-coh.FluMP; Poly I:C 5 μg/ml, LPS 50 ng/ml, CL075 1 μg/ml.
The next test concerns naïve CD8^+ T cells. As to the kind of experiment: Quality of primed CD8+ T cells (effector molecules, cytokines) by DC activator. The conditions noted are these: IFN-α DCs targeted with anti-DCIR-MART-1, Luminex, FIG. 7F. It counts as cell-based, human. How it is done: Expansion of antigen-specific T cells in DC/T cell coculture: To assess the function of DCs in presenting FluMP- or MART-1-derived antigens, the present inventors used DCs from HLA-A201^+ donors. Cells were cultured with conjugates mAbs at the indicated concentration. Syngeneic purified CD8^+ T cells were cultured with the antigen-pulsed DCs at a DC/T ratio 1:20. CD40L (100 ng/ml; R&D) was added to the culture after 24 h to enhance crosspresentation by DCs^49. The cocultures were incubated at 37° C. for 8-10 days. IL-2 was added at 10 U/ml at day 3. Where indicated, DCs were activated with TLR agonists: LPS (10, 50 or 200 ng/ml; […]; Invivogen). The expansion of FluMP-, MART-1-, and HIV gag p24-specific CD8^+ T cells was evaluated using HLA-A201-FluMP (58-66) peptide ([…]) (SEQ ID NO: 1), HLA-A201-MART-1 (26-35) peptide ([…]) (SEQ ID NO: 2) and HLA-A201-p24 (151-155) peptide ([…]) (SEQ ID NO: 3)-tetramers, respectively (Beckman Coulter). For the assessment of crosspriming to multiple CD8^+ T cell-specific epitopes, CD34^+-derived DCs were incubated with anti-DCIR-p24 or IgG4-p24 fusion mAbs and cultured with CFSE-labeled CD8^+ T cells at a DC/T ratio 1:30. […] The secreted IFN-γ was measured in the culture supernatants by Luminex. […] Secretion of IFN-γ, TNF-α, IL-12p40, IL-4, IL-5 and IL-13 were measured in the supernatant after 40 h by Luminex. […]

A further test has as its system CD1a^+ LCs. As to the kind of experiment: DCIR-signaling effect on DC phenotype and activation (surface markers, cytokines). To be noted: stimulated 24 h.

Experimental for CD1a^+ LCs: DCIR-signaling effect on DC-function: CD34^+-derived DCs were cultured in anti-DCIR (clone 24A5 or 9E8) or isotype control coated plates in the presence or absence of CD40L (R&D; 100 ng/ml) or LPS (Invivogen; 50 ng/ml). After 24 h, cells were harvested and stained for surface phenotype. The secreted cytokines were analyzed by a multiplex bead assay (Luminex).
Experimental for blood HLA-A201^+ mDCs: The specific-FluMP CD8^+ T cell response was measured after 8-10 days using HLA-A201-FluMP (58-66) tetramer.

In the case of Poly I:C, in the test on blood HLA-A201^+ mDCs, the “effect of TLR agonist on FluMP-specific CD8^+ T cell response” value is “enhanced the FluMP-specific responses at low concentration of the targeting complex”.

Regarding `CCCc1nc2c(N)nc3ccccc3c2s1` [CL075, reference compound], the “cytokines of DCIR-primed CD8^+ T cells according to the DC activator” value in the test on naïve CD8^+ T cells was “preferentially secrete IFN-γ and TNF-α with markedly reduced amounts of IL-4, IL-5 and IL-13”.

B1: CD40L: CD40 ligand (R&D; 100 ng/ml) used as DC activator (protein, UniProt P29965 113-261, looked up)
CD40 ligand, soluble form: MQKGDQNPQIAAHVISEASSKTTSVLQWAEKGYYTMSNNLVTLENGKQLTVKRQGLYYIYAQVTFCSNREASSQAPFIASLCLKSPGRFERILLRAANTHSSAKPCGQQSIHLGGVFELQPGASVFVNVTDPSQVSHGTGFTSFGLLKL
For B1, the “cytokines of DCIR-primed CD8^+ T cells according to the DC activator” value in the test on naïve CD8^+ T cells was “high amounts of type 2 cytokines (IL-4, IL-5 and IL-13)”. Besides, in the test on CD1a^+ LCs, the “Mean fluorescence expression of CD40” value is listed as 31.8, the “Mean fluorescence expression of CD80” value was determined as 241.0, the “Mean fluorescence expression of CD86” value amounted to 294.0 and the “Mean fluorescence expression of HLA-ABC” value is recorded as 108.0. Also, in the test with CD1a^+ LCs, the “Mean fluorescence expression of HLA-DR” value is reported as 1018.000 and the “Mean fluorescence expression of ICOS-L” value was found to be 69.800.
